The target of assay [1] is T1, cynomolgus monkey (cyno) TIGIT protein (cynomolgus monkey, UniProt A0A7N9I9V4 89-209). As to the kind of experiment: SPR, bivalent affinity. (In general: In SPR one partner is held on a chip, and binding of the other changes the refractive index at the surface.)
In assay [2] the target is T2, human TIGIT protein (human, UniProt Q495A1 22-141, limits assumed).
T2 construct: Recombinant protein (Genentech) used in ELISA screening and as SPR analyte; also called TIGIT antigen
T2 sequence: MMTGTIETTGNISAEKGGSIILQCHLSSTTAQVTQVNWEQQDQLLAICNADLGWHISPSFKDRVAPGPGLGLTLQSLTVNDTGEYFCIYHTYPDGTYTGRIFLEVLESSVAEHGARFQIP
As to the kind of experiment: SPR, bivalent affinity.

In assay [3] the target is T3, full-length human TIGIT on CHO cells (human, UniProt Q495A1 22-244).
T3 construct: also called CHO-hTIGIT; hu TIGIT
T3 sequence: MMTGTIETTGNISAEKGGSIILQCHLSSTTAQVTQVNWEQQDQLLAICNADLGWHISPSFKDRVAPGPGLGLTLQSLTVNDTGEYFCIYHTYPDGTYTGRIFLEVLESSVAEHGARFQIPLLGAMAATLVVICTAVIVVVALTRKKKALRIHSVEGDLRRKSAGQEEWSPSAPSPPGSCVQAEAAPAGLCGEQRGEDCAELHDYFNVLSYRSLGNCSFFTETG
Nature of the assay: FACS on CHO cells expressing human TIGIT, FITC anti-hIgG detection. The protocol:
Additional in vitro binding studies of the OMT- and SD-derived anti-TIGIT antibody clones were conducted. The OMT- and SD-derived anti-TIGIT clones were tested for binding to human and cyno TIGIT expressed on the surface of CHO cells by FACS analysis. CHO cells were transfected with full-length human TIGIT (CHO-hTIGIT) or cynomologous TIGIT (CHO-cyTIGIT). The TIGIT-expressing CHO cells were incubated with each anti-TIGIT antibody at the indicated concentrations and then detected via a FITC-labeled anti-hIgG antibody (see FIG. 1A) using standard methods. The results, shown in Table 6 and FIGS. 1B-1E, corroborate the results from the BIACORE™ analysis, described above.

Assay [4] deals with T4, human TIGIT on activated human primary T cells (human, UniProt Q495A1 22-244).
T4 construct: also called Human T cell
T4 sequence: T3 sequence
Nature of the assay: FACS on activated human PBMC, CD4 T cells, FITC anti-hIgG detection. The protocol:
The OMT- and SD-derived anti-TIGIT clones were also tested for binding to human primary T cells by FACS analysis. Human PBMC were activated for with plate-bound anti-CD3 (5 μg/ml) and soluble anti-CD28 (2 μg/ml) for 2 days as described in Yu et al. Nature Immunology. 10: 48-57, 2009, which is incorporated herein by reference in its entirety. Cells were then washed and incubated with incubated with each anti-TIGIT antibody at the indicated concentrations and then detected via a FITC-labeled anti-hIgG antibody. Cells were also stained with anti-CD4, anti-CD8, and anti-CD25 (BD bioscience). Human CD4+(CD25+CD4+) and human CD8+(CD25+CD8+) T cells were assessed for binding by the anti-TIGIT clones by FACS. All samples were acquired on LSR-II or LSR-Fortessa instruments (BD Biosciences) and analyzed using FlowJo software (Treestar).

In assay [5] the target is T1, cynomolgus monkey (cyno) TIGIT protein. Nature of the assay: SPR, captured mAb. The source says: (§1) To prevent unwanted pyroglutamate formation for clones 4.1A4, 4.1 D3, and 7.4A3 (also referred to as 1A4, 1 D3, and 4A3, respectively) and to resolve the issue of unpaired cysteine residues for clones 4.1A4 and 7.4A3, the following optimized anti-TIGIT antibody variants were generated: 4.1A4.C96S.Q1E, 4.1A4.C96Y.Q1E, 4.1 D3.Q1E, 7.4A3.C96S.Q1E, and 7.4A3.C96Y.Q1E (also referred to as 1A4.C96S.Q1E, 1A4.C96Y.Q1E, 1 D3.Q1E, 4A3.C96S.Q1E, and 4A3.C96Y.Q1E, respectively). As described below in Table 2, the affinities of these five optimized variants for human and cynomolgus monkey (cyno) TIGIT were then determined by Surface Plasmon Resonance (SRP) (BIACORE™ analysis) and compared to that of their respective parental clones.
(§2) Briefly, a series S CM5 biosensor chip was activated with N-ethyl-N′-(3-dimethylaminopropyl)-carbodiimide hydrochloride (EDC) and N-hydroxysuccinimide (NHS) reagents according to the supplier's (GE Healthcare Biosciences, Piscataway, N.J.) instructions, and a human antibody capture kit was applied to couple goat anti-human Fc IgGs in order to achieve approximately 10,000 response units (RU) on each flow cell, followed by blocking un-reacted groups with 1M ethanolamine.
(§3) (flow rate: 30 μl/min) with no regeneration between injections. The sensorgrams were recorded and evaluated by BIAcore™ T200 Evaluation Software (version 2.0) after subtraction of reference cell signal. Association rates (kₒₙ) and dissociation rates (koff) were calculated using a simple one-to-one Langmuir binding model. The equilibrium dissociation constant (KD) was calculated as the ratio koff/kₒₙ.

Assay [6] addresses T2, human TIGIT protein. As to the kind of experiment: SPR, captured mAb.
From the text: as §1, §2, §3

Assay [7] concerns the target T3, full-length human TIGIT on CHO cells. Nature of the assay: FACS blocking assay: labelled PVR-Fc (blocked ligand) on CHO cells expressing human TIGIT. The protocol: These studies were further validated in CHO-TIGIT PVR blocking experiments in which TIGIT-expressing CHO cells were incubated with labeled PVR-Fc fusion protein in the presence of anti-TIGIT antibody or an human IgG1 control (FIG. 4A).

The target in assay [8] is T5, cynomolgus TIGIT on CHO cells (cynomolgus monkey, UniProt A0A7N9I9V4 89-312).
T5 construct: whole, on cells; also called CHO-cyTIGIT; cyTIGIT
As to the kind of experiment: FACS on CHO cells expressing cyno TIGIT, FITC anti-hIgG detection.

Assay [9] addresses T1, cynomolgus monkey (cyno) TIGIT protein. Nature of the assay: SPR, monovalent affinity.
Assay [10] addresses T2, human TIGIT protein. As to the kind of experiment: SPR, monovalent affinity.
Assay [11] concerns the target T6, human TIGIT-AviFlag-biotin (human, UniProt Q495A1 22-141, biotin).
T6 sequence: T2 sequence
Nature of the assay: Block ELISA Human PVR-Fc:Bio-TIGIT-AviFlag (blocked ligand human PVR-Fc). The protocol:
(§4) To test for the ability of the clones to block the TIGIT-PVR interaction, a blocking ELISA assay was used. Briefly, recombinant human PVR-Fc fusion protein, cynomolgus monkey PVR-Fc fusion protein, or mouse PVR-Fc fusion protein was coated at 4 μg/ml at 25 μl/well in phosphate-buffered saline (PBS, pH 7.0) onto 384-well Maxisorp microtiter plates (NUNC, Denmark) and incubated overnight at 4° C. The coating solution was then discarded and the plate was blocked using 0.5% bovine serum albumin (BSA) in PBS at 80 μl/well and incubated with gentle agitation for 1 hour. Titration curves of anti-TIGIT and Fab isotype control antibodies were diluted in assay buffer (PBS, 0.5% BSA, 0.05% Tween 20) using 12 serial 2.5-fold dilutions (40000-1.7 ng/mL). […] The plate was then washed 6× with wash buffer and bound human TIGIT-AviFlag-biotin, cyno TIGIT-AviFlag-biotin, or mouse TIGIT-His was detected by adding 25 μl/well of horseradish peroxidase-conjugated streptavidin (1:10000, Amersham, UK) or horseradish peroxidase-conjugated mouse anti-His (1:2500, Qiagen, Germany) diluted in assay buffer. […] Absorbance was read at 450 nm on a […] ASCENT® microtiter plate reader (Thermo Labsystems, Helsinki, Finland). Fit curves were plotted from the resulting optical density values from the ELISA plates and IC50s were calculated using Genedata Screener software (Genedata, Switzerland).

A further assay addresses T7, mouse TIGIT-His (mouse, UniProt P86176 29-148, limits assumed).
T7 sequence (looked up): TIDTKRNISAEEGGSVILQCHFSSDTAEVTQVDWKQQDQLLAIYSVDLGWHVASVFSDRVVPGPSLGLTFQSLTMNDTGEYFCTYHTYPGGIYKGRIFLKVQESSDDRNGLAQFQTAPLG
As to the kind of experiment: Block ELISA Mouse PVR-Fc:TIGIT-His (blocked ligand mouse PVR-Fc). The protocol: as §4
Background: ELISA stands for enzyme-linked immunosorbent assay.

In assay [12] the target is T8, cynomolgus TIGIT-AviFlag-biotin (cynomolgus monkey, UniProt A0A7N9I9V4 89-209, biotin).
T8 construct: also called cyno TIGIT-AviFlag-biotin
As to the kind of experiment: Block ELISA Cyno PVR-Fc:Bio-TIGIT-AviFlag (blocked ligand cyno PVR-Fc). The protocol: as §4

Bounds are passed on as bounds.

T1 sequence (A0A7N9I9V4 entry or part of it): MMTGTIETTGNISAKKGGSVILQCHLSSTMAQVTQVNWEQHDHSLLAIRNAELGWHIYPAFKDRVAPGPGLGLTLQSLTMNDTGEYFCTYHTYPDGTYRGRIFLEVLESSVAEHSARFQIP
T5 sequence (A0A7N9I9V4 entry or part of it): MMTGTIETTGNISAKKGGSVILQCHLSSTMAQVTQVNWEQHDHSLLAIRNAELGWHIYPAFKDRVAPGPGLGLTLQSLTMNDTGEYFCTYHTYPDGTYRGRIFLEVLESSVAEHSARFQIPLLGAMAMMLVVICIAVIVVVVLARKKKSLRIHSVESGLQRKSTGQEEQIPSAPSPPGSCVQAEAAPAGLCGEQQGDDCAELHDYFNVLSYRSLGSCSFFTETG

B1: 4.1A4 (antibody, V domains shown)
VH: QVQLVQSGSELKKPGASVKVSCKASGYTLTNYPMNWVRQAPGRGLEWMGWINTNTGSPAYAQDFTERFVFSLDTSVTTAYLQISSLKAEDTAVYYCARTAITSVYHFDYWGQGTLVTVSS
VL: DIQLTQSPSFLSASVGDRVTITCRASQGISSYLAWYQQKPGKAPRVLIYGATTLQSGVPSRFSGSESGTEFTLTISSLQPEDLATYYCQKLNSHPCSFGQGTKVEIK
notes: OMT rat-derived human antibody; also called 4.1A4.Q1.C96
On to B1, for which the Kd in assay [1] was found to be 0.035 nM; with human TIGIT protein [2], 0.31 nM; in assay [5], 2.42 nM; in the assay with human TIGIT protein [6], 3.57 nM; in [9], 2.6 nM; with human TIGIT protein [10], 4.9 nM. For the same molecule, the EC50 (read off the curve) (as a rule, the midpoint of the concentration-response curve) in assay [3] was ~1 nM; in assay [4] it was ~0.5 nM; in assay [8], ~0.8 nM. The koff (commonly the rate constant with which the complex falls apart) stood at 0.000643 s⁻¹ in assay [5] and 0.00122 s⁻¹ with human TIGIT protein [6]. Moreover, the kon (usually a measure of how fast the partners come together) was determined as 266000 M⁻¹ s⁻¹ in assay [5] and 342000 M⁻¹ s⁻¹ in the assay with human TIGIT protein [6]. Also, the “IC50 (read off the curve)” value in assay [7] was ~0.2 nM.

B2: 4.1D3.Q1E Fab (Fab, V domains shown)
VH: EVQLQQSGPGLVKPSQTLSLTCAISGDSVSSNSAAWNWIRQSPSRGLEWLGKTYYRFKWYSDYAVSVKGRITINPDTSKNQFSLQLNSVTPEDTAVFYCTRESTTYDLLAGPFDYWGQGTLVTVSS
VL: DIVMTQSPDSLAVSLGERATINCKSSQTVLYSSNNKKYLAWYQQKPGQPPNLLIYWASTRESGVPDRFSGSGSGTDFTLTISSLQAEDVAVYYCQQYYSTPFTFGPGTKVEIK
notes: also called 4.1 D3.Q1E in Fab format
With B2, the IC50 (usually the point on the concentration scale where inhibition reaches its midpoint) was 6.9 nM in [11], > 133 nM with mouse TIGIT-His and 1.5 nM in [12].

The values above are taken from US20220064286A1 (Genentech, published 2022).
